No end group written: not given here.

The chains are these.
B4: Recombinant human S100A4 (natural protein)
chain: not shown
notes: S100A4 protein, human, recombinant

Details in all cases: both partners purified
In test [1] the target is T1, human extracellular ErbB1/Fc chimera (human, UniProt P00533 25-645).
T1 construct: ErbB1 (EGFR), human, extracellular part; also called EGFR; EGFR-Fc; source: bought: R&D Systems (carrier free)
In words: SPR; BIAcore 2000; 2000 RU of ErbB/Fc chimera immobilized covalently on a CM4 chip; S100A4 or peptides as analyte; apparent affinities calculated from binding kinetics.

The target in test [2] is T2, human extracellular ErbB3/Fc chimera (human, UniProt P21860 20-643).
T2 construct: ErbB3, human, extracellular part; also called Fc-conjugated ErbB3; source: bought: R&D Systems (carrier free)
T2 sequence (P21860 20-643, change not shown): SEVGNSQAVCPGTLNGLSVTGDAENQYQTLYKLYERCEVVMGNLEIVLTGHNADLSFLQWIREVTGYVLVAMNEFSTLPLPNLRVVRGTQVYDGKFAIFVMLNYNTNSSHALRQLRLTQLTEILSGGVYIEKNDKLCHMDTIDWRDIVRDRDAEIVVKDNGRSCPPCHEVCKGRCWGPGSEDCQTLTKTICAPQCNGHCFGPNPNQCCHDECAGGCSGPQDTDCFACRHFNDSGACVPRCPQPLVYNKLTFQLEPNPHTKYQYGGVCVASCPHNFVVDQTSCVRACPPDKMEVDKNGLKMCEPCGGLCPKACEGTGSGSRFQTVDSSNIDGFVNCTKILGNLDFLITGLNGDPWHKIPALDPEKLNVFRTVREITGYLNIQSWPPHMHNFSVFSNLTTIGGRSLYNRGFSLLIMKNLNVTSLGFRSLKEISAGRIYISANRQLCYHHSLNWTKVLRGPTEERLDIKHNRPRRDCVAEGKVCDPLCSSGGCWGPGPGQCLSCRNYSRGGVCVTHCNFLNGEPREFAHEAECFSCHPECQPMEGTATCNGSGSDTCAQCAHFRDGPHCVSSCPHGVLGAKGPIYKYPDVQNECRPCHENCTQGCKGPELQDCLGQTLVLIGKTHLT
Described as above.

For test [3], the target named is T3, human extracellular ErbB4/Fc chimera (human, UniProt Q15303 26-651).
T3 construct: ErbB4, human, extracellular part; also called Fc-conjugated ErbB4; source: bought: R&D Systems (carrier free)
T3 sequence (looked up): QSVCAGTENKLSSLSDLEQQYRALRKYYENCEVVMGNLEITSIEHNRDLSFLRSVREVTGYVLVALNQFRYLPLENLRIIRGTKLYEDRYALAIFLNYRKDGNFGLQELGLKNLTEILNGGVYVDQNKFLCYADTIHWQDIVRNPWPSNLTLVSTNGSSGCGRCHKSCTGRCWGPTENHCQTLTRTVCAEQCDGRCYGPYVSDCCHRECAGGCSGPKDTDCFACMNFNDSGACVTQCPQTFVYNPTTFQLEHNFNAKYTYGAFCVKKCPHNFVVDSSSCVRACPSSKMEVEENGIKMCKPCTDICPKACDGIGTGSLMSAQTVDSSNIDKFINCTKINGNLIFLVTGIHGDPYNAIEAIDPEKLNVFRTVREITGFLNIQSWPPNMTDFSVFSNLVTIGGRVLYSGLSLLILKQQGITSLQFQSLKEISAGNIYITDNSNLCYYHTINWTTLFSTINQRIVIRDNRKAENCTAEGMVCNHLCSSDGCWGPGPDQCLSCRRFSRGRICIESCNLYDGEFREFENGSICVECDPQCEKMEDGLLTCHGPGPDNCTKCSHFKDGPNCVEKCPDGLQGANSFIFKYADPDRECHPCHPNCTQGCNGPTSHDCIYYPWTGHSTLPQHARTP
Described as above.

In the test “Recombinant human S100A4” the target is B4. In words: SPR; BIAcore 2000; 2000 RU of recombinant human S100A4 immobilized covalently on a CM4 chip; soluble AR or NRG as analyte.
For test [4], the target named is T1, human extracellular ErbB1/Fc chimera. In words: cross-linking; label transfer in solution: 100 nM Sulfo-SBED-conjugated protein with 50 nM Fc fusion or mouse IgG, 30 min in the dark at RT in TBS-Ca2+, UV 302 nm 5 min, precipitated with Protein A Dynabeads, reduced, biotin detected with streptavidin-HRP.
In test [5] the target is T2, human extracellular ErbB3/Fc chimera. Described as above.
In test [6] the target is T3, human extracellular ErbB4/Fc chimera. The description is as above.

Sequence of Recombinant human S100A4 (P26447 whole entry, the tested form may be a part): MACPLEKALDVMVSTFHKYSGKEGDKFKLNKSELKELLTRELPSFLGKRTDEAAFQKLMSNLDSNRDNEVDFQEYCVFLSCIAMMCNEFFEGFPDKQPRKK

B1: H3 peptide (S100A4-derived), tetramer on a lysine backbone (peptide)
peptide: KELLTRELPSFLGKRT
modifications: also: tetramer: four monomers coupled to a lysine backbone
notes: motif of S100A4 with high homology within the S100 family; Dendrimeric tetramer: four copies of the peptide on a lysine backbone; source: synthetic peptide (Schafer-N, Denmark)
For the molecule B1, the Kd in test [1] is 107 ± 23.1 nM; in test [2], 203 ± 46.7 nM; in test [3], 199 ± 53.1 nM.

B2: amphiregulin (ligand, UniProt P15514 101-187, looked up)
chain: SVRVEQVVKPPQNKTESENTSDKPKRKKKGGKNGKNRRNRKKKNPCNAEFQNFCIHGECKYIEHLEAVTCKCQQEYFGERCGEKSMK
notes: amphiregulin (AR), soluble, ligand of EGFR; also called AR; source: bought: R&D Systems (carrier free)
On to B2, for which the Kd with Recombinant human S100A4 came out at 71.3 ± 12.3 nM.

B3: Sulfo-SBED-S100A4 (natural protein)
chain: not shown
modifications: derivatized with sulfo-SBED (biotin label-transfer cross-linker); sites not stated
notes: S100A4 protein, human, recombinant; The same protein as m1, carrying the sulfo-SBED label for the label transfer cross-linking; also called sulfo-SBED-conjugated S100A4
Turning to B3, the binding result in test [4], in test [5] and in test [6] was “binds” throughout.
Consider B4, for which the Kd is 21.4 ± 5.5 nM in test [1], 58 ± 30 nM in test [2] and 66 ± 26.9 nM in test [3].

B5: H6 peptide (S100A4-derived), tetramer on a lysine backbone (peptide)
peptide: NEFFEGFPDKQPRKK
modifications: also: tetramer: four monomers coupled to a lysine backbone
notes: low-homology ('unique') motif in the C-terminal of S100A4; Dendrimeric tetramer: four copies of the peptide on a lysine backbone; source: synthetic peptide (Schafer-N, Denmark)
Take B5: the Kd was 802 ± 114 nM in test [1], 62.3 ± 18.8 nM in test [2] and 217 ± 19.9 nM in test [3].
